Data as given in the supplement of paper PMC9112550, “Optimization of the antimicrobial peptide Bac7 by deep mutational scanning” (BMC Biology, 2022).

system: Escherichia coli TOP10; experiment: shrunken log2 fold change of peptide-encoding DNA abundance (4.5 h post-induction vs induction); higher = less antimicrobial activity (less host growth inhibition); details: time post-induction: 4.5 h; library: site-saturation at positions 5, 18, 19, 20
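Note: peptides expressed intracellularly from a pBAD plasmid library in pooled LB shake-flask culture, induced with 0.3% L-arabinose, DNA abundance read by NGS, three biological replicates, DESeq2 with apeglm shrinkage.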

Sequence | shrunken log2 fold change
RRIRRRPPRLPRPRPRPVMKPRP | -0.025
RRIRRRPPRLPRPRPRPGDSPRP | 0.269
RRIRYRPPRLPRPRPRPQAYPRP | -0.00884
RRIRPRPPRLPRPRPRPQLWPRP | 0.221
RRIRNRPPRLPRPRPRPTGFPRP | -0.0139
RRIRVRPPRLPRPRPRPCVVPRP | 0.0226
RRIRKRPPRLPRPRPRPTMNPRP | -0.00264
RRIRRRPPRLPRPRPRPIDTPRP | -0.307
RRIRNRPPRLPRPRPRPFWRPRP | -0.0018
RRIRCRPPRLPRPRPRPDCIPRP | -0.027
RRIRARPPRLPRPRPRPGNRPRP | 0.0467
RRIRDRPPRLPRPRPRPGGSPRP | 0.25
RRIRCRPPRLPRPRPRPGHQPRP | 0.242
RRIRPRPPRLPRPRPRPYCVPRP | -0.479
RRIRQRPPRLPRPRPRPRCIPRP | -0.188
RRIRPRPPRLPRPRPRPTPTPRP | 0.483
RRIRHRPPRLPRPRPRPERHPRP | 0.0281
RRIRIRPPRLPRPRPRPTVMPRP | -0.0131
RRIRWRPPRLPRPRPRPDGEPRP | 0.0237
RRIRRRPPRLPRPRPRPPFHPRP | 0.321
RRIRCRPPRLPRPRPRPHTCPRP | 0.0253
RRIRYRPPRLPRPRPRPTTCPRP | -0.923
RRIRWRPPRLPRPRPRPHWEPRP | 0.323
RRIRRRPPRLPRPRPRPIAWPRP | 0.0624
RRIRIRPPRLPRPRPRPPNQPRP | -0.0959

Sequence | shrunken log2 fold change
RRIRCRPPRLPRPRPRPGQKPRP | 0.0902
RRIRVRPPRLPRPRPRPNFLPRP | -0.0134
RRIRCRPPRLPRPRPRPKYPPRP | -0.196
RRIRPRPPRLPRPRPRPLMCPRP | -0.122
RRIRSRPPRLPRPRPRPENLPRP | 0.026
RRIRSRPPRLPRPRPRPRNMPRP | -0.53
RRIRNRPPRLPRPRPRPMLAPRP | -0.053
RRIRKRPPRLPRPRPRPDDEPRP | 0.143
RRIRSRPPRLPRPRPRPAYMPRP | -0.608
RRIRHRPPRLPRPRPRPYPPPRP | -0.694
RRIRMRPPRLPRPRPRPIRSPRP | -0.0819
RRIRHRPPRLPRPRPRPFQGPRP | -0.0278
RRIRNRPPRLPRPRPRPLCHPRP | -0.359
RRIRPRPPRLPRPRPRPGEGPRP | 0.349
RRIRPRPPRLPRPRPRPRGIPRP | -0.176
RRIRARPPRLPRPRPRPDDNPRP | 0.248
RRIRERPPRLPRPRPRPWLGPRP | -0.247
RRIRLRPPRLPRPRPRPFASPRP | -0.062
RRIRSRPPRLPRPRPRPVFVPRP | -0.00419
RRIRDRPPRLPRPRPRPPGCPRP | -0.0092
RRIRQRPPRLPRPRPRPPVEPRP | 0.265
RRIRHRPPRLPRPRPRPGSRPRP | -0.168
RRIRKRPPRLPRPRPRPACTPRP | 0.219
RRIRMRPPRLPRPRPRPARCPRP | 1.16
RRIRHRPPRLPRPRPRPHKMPRP | -0.266

Sequence | shrunken log2 fold change
RRIRKRPPRLPRPRPRPVKSPRP | 0.155
RRIRARPPRLPRPRPRPCNCPRP | 0.00702
RRIRSRPPRLPRPRPRPLKAPRP | -0.234
RRIRHRPPRLPRPRPRPFLGPRP | 0.0354
RRIRSRPPRLPRPRPRPGAIPRP | 0.187
RRIRWRPPRLPRPRPRPCLHPRP | -0.01
RRIRNRPPRLPRPRPRPTIKPRP | -0.496
RRIRMRPPRLPRPRPRPLWMPRP | 0.0202
RRIRARPPRLPRPRPRPHMDPRP | 0.281
RRIRKRPPRLPRPRPRPRLVPRP | 0.338
RRIRLRPPRLPRPRPRPVNAPRP | 0.0227
RRIRQRPPRLPRPRPRPFINPRP | -0.241
RRIRARPPRLPRPRPRPFVPPRP | -0.0963
RRIRKRPPRLPRPRPRPFGHPRP | -0.00208
RRIRARPPRLPRPRPRPCPEPRP | 0.179
RRIRTRPPRLPRPRPRPDICPRP | 0.0407
RRIRIRPPRLPRPRPRPQSTPRP | -0.427
RRIRARPPRLPRPRPRPSMFPRP | 0.00699
RRIRYRPPRLPRPRPRPAVEPRP | 0.161
RRIRTRPPRLPRPRPRPGQKPRP | 0.0923
RRIRERPPRLPRPRPRPKYHPRP | -0.57
RRIRNRPPRLPRPRPRPMLYPRP | -0.318
RRIRQRPPRLPRPRPRPYFVPRP | -0.472
RRIRPRPPRLPRPRPRPWTSPRP | -0.0224
RRIRMRPPRLPRPRPRPMLYPRP | 0.0885
